Measured values published in article PMC3159453 (Nucleic Acids Research, 2011).
Substitutions are numbered along the chain they refer to.

Tests used:
[1] = biological target: T1, LexA repressor (wild type) (E. coli K-12 strain RW118, UniProt P0A7C2 1-202); experiment: cross-linking
T1 sequence (looked up): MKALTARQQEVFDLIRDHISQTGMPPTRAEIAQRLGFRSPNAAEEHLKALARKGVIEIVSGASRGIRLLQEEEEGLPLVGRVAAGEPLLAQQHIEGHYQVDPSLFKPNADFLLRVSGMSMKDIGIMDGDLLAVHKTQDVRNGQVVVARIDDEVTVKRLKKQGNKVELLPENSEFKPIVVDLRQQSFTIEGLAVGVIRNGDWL

cross-linking [2] = biological target: the molecule itself; experiment: cross-linking
cross-linking [3] = biological target: the molecule itself; experiment: cross-linking; remark: listed apart in the source
EPR = biological target: the molecule itself; experiment: EPR
LexA A29R1 (LexA29) = LexA A29R1 (LexA29) (Escherichia coli K-12 RW118, UniProt P0A7C2 1-202, A29C); experiment: EPR
LexA G54R1 (LexA54) = LexA G54R1 (LexA54) (Escherichia coli K-12 RW118, UniProt P0A7C2 1-202, G54C); experiment: EPR

B1: LexA C-terminal fragment (CTD), product of self-cleavage (domain or fragment, E. coli K-12 strain RW118, UniProt P0A7C2 85-202, looked up)
chain: GEPLLAQQHIEGHYQVDPSLFKPNADFLLRVSGMSMKDIGIMDGDLLAVHKTQDVRNGQVVVARIDDEVTVKRLKKQGNKVELLPENSEFKPIVVDLRQQSFTIEGLAVGVIRNGDWL
B1: binds [1]; binds (cross-linking [2]).

B2: LexA54 (Gly54 replaced by Cys), oxidized (natural protein, E. coli K-12 strain RW118, UniProt P0A7C2 1-202, looked up)
chain: T1 sequence (looked up) with G54C
modifications: covalently bound at residue 54 after oxidation with 0.1 mM CuSO4 and 0.5 mM 1,10-phenantroline
B2: binds (cross-linking [3]).

B3: LexA29 spin labeled (A29R1) (natural protein, E. coli K-12 strain RW118, UniProt P0A7C2 1-202, looked up)
chain: T1 sequence (looked up) with A29C
modifications: MTSSL nitroxide spin label (R1) on the cysteine at position 29
B3: binds (EPR).

B4: LexA54 spin labeled (G54R1) (natural protein, E. coli K-12 strain RW118, UniProt P0A7C2 1-202, looked up)
chain: T1 sequence (looked up) with G54C
modifications: MTSSL nitroxide spin label (R1) on the cysteine at position 54
B4: binds (EPR).

B5: tisB operator 24 bp (Tis_1b/Tis_2b) (dsDNA)
DNA 1: TTTACTGTATAAATAAACAGTAAT
DNA 2: ATTACTGTTTATTTATACAGTAAA
B5: binds (LexA A29R1 (LexA29)); binds (LexA G54R1 (LexA54)).
